{"source": "the RNAGym collection of RNA variant scans (doi:10.1073/pnas.2313332121)", "parents": {"B1": {"name": "TPR t1 (parent)", "chain": "GACCAAUCUGCCCUCAGAGCUCGAGAACAUCUUCGGAUGCAGAGGAGGCAGGCUUCGGUGGCGCGAUAGCGCCAACGUCCUCAACCUCCAAUGCAUCCCACCACAUGAUGAUGCCUGAAGAGCCUUGGUUUUUUG"}}, "data": [{"variants_of": "B1", "assay": "polymerase ribozyme fitness, log enrichment relative to wild type (log ratio); higher = more active; in vitro selection for triplet polymerase activity", "how_it_was_run": "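Each subunit of a heterodimeric triplet polymerase ribozyme was represented by a PCR-built, transcribed mutant library that underwent triplicate single-round in vitro selection with frozen incubation at −7 °C. Extended constructs were recovered by gel excision, streptavidin-bead capture and RT-PCR, and Illumina sequencing of input and output libraries kept genotypes with ≥10 input reads and ≥1 read per output. Fitness is the logarithm of genotype enrichment relative to wild-type enrichment, from inverse-variance-weighted replicate averages, with a logarithm base of 2.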", "values": [{"variant": "G45C G60C U78A C89A G120C G127A", "polymerase ribozyme fitness (log ratio)": -5.17}, {"variant": "G45U U132A", "polymerase ribozyme fitness (log ratio)": -1.91}, {"variant": "G47A U55A G60C A90U U92A", "polymerase ribozyme fitness (log ratio)": -4}, {"variant": "A46G G61A C80U C94U", "polymerase ribozyme fitness (log ratio)": -2.56}, {"variant": "A46C C72G G135U", "polymerase ribozyme fitness (log ratio)": -2.4}, {"variant": "G45U C56A", "polymerase ribozyme fitness (log ratio)": -2.01}, {"variant": "A46U C62U A91U A103G U106A C114U U131G", "polymerase ribozyme fitness (log ratio)": -6.47}, {"variant": "G47U C73A U78C C88U A95G", "polymerase ribozyme fitness (log ratio)": -4.73}, {"variant": "G47U C72A C76A C79A C80G C94G A100C U116G C124U U129A", "polymerase ribozyme fitness (log ratio)": -7.94}, {"variant": "G45U G57C G69U G110A U125A", "polymerase ribozyme fitness (log ratio)": -0.972}, {"variant": "A46G G61C G69U C97A A111U", "polymerase ribozyme fitness (log ratio)": -5.77}, {"variant": "A46U U125A", "polymerase ribozyme fitness (log ratio)": -1.67}, {"variant": "A46G U54G C62G U78C C123U", "polymerase ribozyme fitness (log ratio)": -4.11}, {"variant": "A46U U106G", "polymerase ribozyme fitness (log ratio)": -2.72}, {"variant": "G47A C85A", "polymerase ribozyme fitness (log ratio)": -2.48}, {"variant": "A46G C79A", "polymerase ribozyme fitness (log ratio)": -1.06}, {"variant": "A46G C85G", "polymerase ribozyme fitness (log ratio)": -2.68}, {"variant": "G45C U132C", "polymerase ribozyme fitness (log ratio)": -1.51}, {"variant": "G47A C115U", "polymerase ribozyme fitness (log ratio)": -2.3}, {"variant": "A46G C56A U133G", "polymerase ribozyme fitness (log ratio)": -0.786}, {"variant": "G47A G58A C62U C101U A108G", "polymerase ribozyme fitness (log ratio)": -2.41}, {"variant": "G47C C53U C124A", "polymerase ribozyme fitness (log ratio)": 0.271}, {"variant": "G45U C101A C102U", "polymerase ribozyme fitness (log ratio)": -5.42}, {"variant": "G45U G52A C72U G110C C123U", "polymerase ribozyme fitness (log ratio)": -6.25}, {"variant": "G45U C72G G93A", "polymerase ribozyme fitness (log ratio)": -2.7}, {"variant": "G47C G48U C62U C85U A108U A111U G120C G122C", "polymerase ribozyme fitness (log ratio)": -6.85}, {"variant": "G45U G48U A68C A74C A95G C97A C98U C104U G122U", "polymerase ribozyme fitness (log ratio)": -6.66}, {"variant": "G47U C94G", "polymerase ribozyme fitness (log ratio)": -3.51}, {"variant": "A46G A90C C99U U106C", "polymerase ribozyme fitness (log ratio)": -4.81}, {"variant": "G45U C64U A121G", "polymerase ribozyme fitness (log ratio)": -0.662}, {"variant": "A46G G63C A84G C88U C124U", "polymerase ribozyme fitness (log ratio)": -0.641}, {"variant": "G45U C70U A119U G127A", "polymerase ribozyme fitness (log ratio)": -3.74}, {"variant": "G45A G69U A103C", "polymerase ribozyme fitness (log ratio)": -2.35}, {"variant": "A46U A90U A105U C115U C124U", "polymerase ribozyme fitness (log ratio)": -5.04}, {"variant": "G45U A50U G117U", "polymerase ribozyme fitness (log ratio)": -4.81}, {"variant": "G47A C85U C101U", "polymerase ribozyme fitness (log ratio)": -2.15}, {"variant": "G47C U125G", "polymerase ribozyme fitness (log ratio)": -3.03}, {"variant": "G47C C79A", "polymerase ribozyme fitness (log ratio)": -5.18}, {"variant": "G45C C73U", "polymerase ribozyme fitness (log ratio)": -0.881}, {"variant": "A46G G58C C99U C114G", "polymerase ribozyme fitness (log ratio)": -6.59}, {"variant": "A46C C72A U112C C124U", "polymerase ribozyme fitness (log ratio)": 1.22}, {"variant": "G45U C85U", "polymerase ribozyme fitness (log ratio)": -2.01}, {"variant": "A46U G57A C79G", "polymerase ribozyme fitness (log ratio)": -2.59}, {"variant": "G45A C62U C115U U116C U126A G128C", "polymerase ribozyme fitness (log ratio)": -5.86}, {"variant": "A46G A91C G93A", "polymerase ribozyme fitness (log ratio)": -3.21}, {"variant": "G45U G60C C88G", "polymerase ribozyme fitness (log ratio)": -1.14}, {"variant": "A46C C64A G69C C94A", "polymerase ribozyme fitness (log ratio)": -2.85}, {"variant": "G45U G51A C94G", "polymerase ribozyme fitness (log ratio)": -5.45}, {"variant": "G47C C70U U78A", "polymerase ribozyme fitness (log ratio)": -1.82}, {"variant": "A46G G113A G120U U133A", "polymerase ribozyme fitness (log ratio)": -3.17}, {"variant": "A46U C62A", "polymerase ribozyme fitness (log ratio)": -2.13}, {"variant": "A46C C101G G120A", "polymerase ribozyme fitness (log ratio)": -2}, {"variant": "G45C C53U U78A U112C", "polymerase ribozyme fitness (log ratio)": 0.64}, {"variant": "G45U G57U C73G U78A C94A A119G", "polymerase ribozyme fitness (log ratio)": -0.559}, {"variant": "G44U G71U", "polymerase ribozyme fitness (log ratio)": -1.06}, {"variant": "G47U C53U A111G", "polymerase ribozyme fitness (log ratio)": -1.54}, {"variant": "A46C G61U U106A", "polymerase ribozyme fitness (log ratio)": 0.556}, {"variant": "A46U A74U A91G C123G", "polymerase ribozyme fitness (log ratio)": -3.09}, {"variant": "A46U C64U U81G", "polymerase ribozyme fitness (log ratio)": -6.35}, {"variant": "G45U A68G C79G C99U U112A", "polymerase ribozyme fitness (log ratio)": -7.19}, {"variant": "G44U G113C U130A", "polymerase ribozyme fitness (log ratio)": -2.45}, {"variant": "A46U A74U G113A", "polymerase ribozyme fitness (log ratio)": -1.99}, {"variant": "G45C G69A U87C U130C", "polymerase ribozyme fitness (log ratio)": -2.8}, {"variant": "G47C A95G U133A", "polymerase ribozyme fitness (log ratio)": -2.16}, {"variant": "A46G G63C G110U U116A U130C", "polymerase ribozyme fitness (log ratio)": -4.2}, {"variant": "A46U C114G", "polymerase ribozyme fitness (log ratio)": -3.78}, {"variant": "G45U A111U", "polymerase ribozyme fitness (log ratio)": -4.37}, {"variant": "A46U C73G G77U C101A C104U", "polymerase ribozyme fitness (log ratio)": -2.96}, {"variant": "G45A C80U C115A A121G", "polymerase ribozyme fitness (log ratio)": 0.603}, {"variant": "G45U C114G", "polymerase ribozyme fitness (log ratio)": -3.8}, {"variant": "G45U C114A", "polymerase ribozyme fitness (log ratio)": -0.0443}, {"variant": "G45C G69C", "polymerase ribozyme fitness (log ratio)": -2.23}, {"variant": "G45U G60A C82G C85G G117A", "polymerase ribozyme fitness (log ratio)": -3.09}, {"variant": "G47A U87C U112A", "polymerase ribozyme fitness (log ratio)": 0.24}, {"variant": "G47A G69U G77C C99U C114G", "polymerase ribozyme fitness (log ratio)": -3.2}, {"variant": "G47A A50U A91C", "polymerase ribozyme fitness (log ratio)": -4.79}, {"variant": "A46U G57U U132A", "polymerase ribozyme fitness (log ratio)": -0.968}, {"variant": "G45U C104A G110U A118C", "polymerase ribozyme fitness (log ratio)": -5.08}, {"variant": "G45U G61A C88U A90C G113A", "polymerase ribozyme fitness (log ratio)": -3}, {"variant": "G47C C72G G113A U126A", "polymerase ribozyme fitness (log ratio)": -5.16}, {"variant": "A46U C124A U131C", "polymerase ribozyme fitness (log ratio)": 1.32}, {"variant": "G45U A50U G52U G58A", "polymerase ribozyme fitness (log ratio)": -4.49}, {"variant": "G47U C72U U87C C98G U112A", "polymerase ribozyme fitness (log ratio)": -7.3}]}]}
